B1: 3xTEL (FP) (ssDNA)
DNA: TTAGGGTTAGGGTTAGGG
B2: 3xTEL (EMSA) (ssDNA)
DNA: TTAGGGTTAGGGTTAGGG

Columns and labels:
[1] = target: CST g4.1 (negative control mutant) (human, UniProt Q2NKJ3;Q9H668;Q86WV5 1-1217;1-368;1-123, R744E;CTC1:K743E); assay: fluorescence anisotropy
CST g2.1 [2] = target: T1, CST g2.1 (human, UniProt Q2NKJ3;Q9H668;Q86WV5 1-1217;1-368;1-123, N981D;Y983A;CTC1:R978E); assay: fluorescence anisotropy
CST g3.1 [3] = target: T2, CST g3.1 (human, UniProt Q2NKJ3;Q9H668;Q86WV5 1-1217;1-368;1-123, K1167E;CTC1:K1164E); assay: fluorescence anisotropy
CST g1.1 [4] = target: T3, CST g1.1 (human, UniProt Q2NKJ3;Q9H668;Q86WV5 1-1217;1-368;1-123, E951K;CTC1:Y949A); assay: fluorescence anisotropy
CST g3.1 [5] = target: T2, CST g3.1; assay: EMSA
CST g1.1 [6] = target: T3, CST g1.1; assay: EMSA
CST g2.1 [7] = target: T1, CST g2.1; assay: EMSA

T1 sequence (Q2NKJ3 whole entry N981D/Y983A, chain 1 of 3): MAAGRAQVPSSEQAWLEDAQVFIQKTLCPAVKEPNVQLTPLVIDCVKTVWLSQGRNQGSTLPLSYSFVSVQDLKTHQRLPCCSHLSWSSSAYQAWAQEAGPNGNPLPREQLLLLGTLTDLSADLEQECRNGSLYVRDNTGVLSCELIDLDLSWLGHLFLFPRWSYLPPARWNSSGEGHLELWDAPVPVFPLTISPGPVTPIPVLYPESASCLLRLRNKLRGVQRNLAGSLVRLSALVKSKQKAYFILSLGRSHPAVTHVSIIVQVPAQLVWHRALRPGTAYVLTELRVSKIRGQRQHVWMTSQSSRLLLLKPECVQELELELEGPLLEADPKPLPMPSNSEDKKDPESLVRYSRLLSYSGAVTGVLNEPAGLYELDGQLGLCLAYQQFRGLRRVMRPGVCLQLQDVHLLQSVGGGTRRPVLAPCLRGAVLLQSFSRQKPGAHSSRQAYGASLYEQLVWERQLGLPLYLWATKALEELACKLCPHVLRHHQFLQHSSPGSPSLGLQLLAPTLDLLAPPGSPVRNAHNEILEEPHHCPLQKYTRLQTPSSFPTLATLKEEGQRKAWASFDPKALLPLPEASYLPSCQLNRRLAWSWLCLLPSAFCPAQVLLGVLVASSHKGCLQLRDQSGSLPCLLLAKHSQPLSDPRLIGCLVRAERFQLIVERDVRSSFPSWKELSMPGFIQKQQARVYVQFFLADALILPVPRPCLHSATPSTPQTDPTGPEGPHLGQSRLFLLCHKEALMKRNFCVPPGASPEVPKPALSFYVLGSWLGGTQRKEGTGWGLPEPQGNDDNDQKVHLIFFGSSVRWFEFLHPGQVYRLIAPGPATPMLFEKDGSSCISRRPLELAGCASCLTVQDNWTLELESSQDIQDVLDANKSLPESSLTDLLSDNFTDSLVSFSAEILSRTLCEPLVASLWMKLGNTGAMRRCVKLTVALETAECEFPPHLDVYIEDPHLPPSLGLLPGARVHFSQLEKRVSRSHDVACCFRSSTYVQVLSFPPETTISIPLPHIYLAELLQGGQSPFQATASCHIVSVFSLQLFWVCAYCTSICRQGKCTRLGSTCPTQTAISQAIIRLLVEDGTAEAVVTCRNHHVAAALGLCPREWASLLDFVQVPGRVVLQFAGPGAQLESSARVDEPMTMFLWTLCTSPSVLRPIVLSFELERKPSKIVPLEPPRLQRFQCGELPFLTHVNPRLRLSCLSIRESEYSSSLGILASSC
T1 sequence (Q9H668 whole entry, stated change not applied, chain 2 of 3): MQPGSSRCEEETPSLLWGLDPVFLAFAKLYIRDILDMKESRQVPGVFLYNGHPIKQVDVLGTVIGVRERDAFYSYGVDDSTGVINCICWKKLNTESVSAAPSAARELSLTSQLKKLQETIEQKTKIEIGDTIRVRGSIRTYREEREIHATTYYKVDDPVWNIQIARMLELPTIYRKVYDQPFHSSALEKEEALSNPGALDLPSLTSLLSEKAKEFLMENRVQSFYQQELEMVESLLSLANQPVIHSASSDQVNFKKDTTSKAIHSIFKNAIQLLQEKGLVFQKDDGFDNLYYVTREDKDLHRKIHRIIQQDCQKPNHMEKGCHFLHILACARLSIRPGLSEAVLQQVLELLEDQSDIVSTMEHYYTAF
T1 sequence (Q86WV5 whole entry, stated change not applied, chain 3 of 3): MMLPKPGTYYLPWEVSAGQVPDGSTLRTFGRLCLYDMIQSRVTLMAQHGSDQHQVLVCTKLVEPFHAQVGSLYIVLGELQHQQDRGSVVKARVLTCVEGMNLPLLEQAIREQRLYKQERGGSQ
T2 sequence (Q2NKJ3 whole entry K1167E, chain 1 of 3): as the sequence (Q2NKJ3 whole entry N981D/Y983A, chain 1 of 3) above, with D981N, A983Y, K1167E counted along it
T2 sequence (Q9H668 whole entry, stated change not applied, chain 2 of 3): as the sequence (Q9H668 whole entry, stated change not applied, chain 2 of 3) above
T2 sequence (Q86WV5 whole entry, stated change not applied, chain 3 of 3): as the sequence (Q86WV5 whole entry, stated change not applied, chain 3 of 3) above
T3 sequence (Q2NKJ3 whole entry E951K, chain 1 of 3): as the sequence (Q2NKJ3 whole entry N981D/Y983A, chain 1 of 3) above, with E951K, D981N, A983Y counted along it
T3 sequence (Q9H668 whole entry, stated change not applied, chain 2 of 3): as the sequence (Q9H668 whole entry, stated change not applied, chain 2 of 3) above
T3 sequence (Q86WV5 whole entry, stated change not applied, chain 3 of 3): as the sequence (Q86WV5 whole entry, stated change not applied, chain 3 of 3) above
Sequence of CST g4.1 (negative control mutant) (Q2NKJ3 whole entry R744E, chain 1 of 3): as the sequence (Q2NKJ3 whole entry N981D/Y983A, chain 1 of 3) above, with R744E, D981N, A983Y counted along it
Sequence of CST g4.1 (negative control mutant) (Q9H668 whole entry, stated change not applied, chain 2 of 3): as the sequence (Q9H668 whole entry, stated change not applied, chain 2 of 3) above
Sequence of CST g4.1 (negative control mutant) (Q86WV5 whole entry, stated change not applied, chain 3 of 3): as the sequence (Q86WV5 whole entry, stated change not applied, chain 3 of 3) above

Binder | Kd [1] [nM] | Kd (CST g2.1 [2]) [nM] | Kd (CST g3.1 [3]) [nM] | Kd (CST g1.1 [4]) [nM] | Kd (CST g3.1 [5]) [nM] | Kd (CST g1.1 [6]) [nM] | Kd (CST g2.1 [7]) [nM]
B1 | 2 ± 0.16 | ~800 | ~420 | ~520 |  |  | 
B2 |  |  |  |  | 97 ± 27 | 133 ± 73 | 210 ± 106
